# Results from patent publication US7125658B2, “Small protein that interacts with a ribonucleotide reductase subunit and uses thereof” (The Trustees of Columbia University in the City of New York, priority 1998, dated 2006).
# B1: Sml1p: 104 amino acid yeast protein encoded by YML058w (SML1) that binds Rnr1 and inhibits ribonucleotide reductase; recombinant, expressed in E. coli (protein)
# chain: MQNSQDYFYAQNRCQQQQAPSTLRTVTMAEFRRVPLPPMAEVPMLSTQNSMGSSASASASSLEMWEKDLEERLNSIDHDMNNNKFGSGELKSMFNQGKVEEMDF
# Biological target: T1, mouse R1 protein (Mus musculus, UniProt P07742)
# T1 construct: made in house; host or cells: E. coli BL21 (DE3)pLysS, pET3a
# T1 sequence (P07742 1-792): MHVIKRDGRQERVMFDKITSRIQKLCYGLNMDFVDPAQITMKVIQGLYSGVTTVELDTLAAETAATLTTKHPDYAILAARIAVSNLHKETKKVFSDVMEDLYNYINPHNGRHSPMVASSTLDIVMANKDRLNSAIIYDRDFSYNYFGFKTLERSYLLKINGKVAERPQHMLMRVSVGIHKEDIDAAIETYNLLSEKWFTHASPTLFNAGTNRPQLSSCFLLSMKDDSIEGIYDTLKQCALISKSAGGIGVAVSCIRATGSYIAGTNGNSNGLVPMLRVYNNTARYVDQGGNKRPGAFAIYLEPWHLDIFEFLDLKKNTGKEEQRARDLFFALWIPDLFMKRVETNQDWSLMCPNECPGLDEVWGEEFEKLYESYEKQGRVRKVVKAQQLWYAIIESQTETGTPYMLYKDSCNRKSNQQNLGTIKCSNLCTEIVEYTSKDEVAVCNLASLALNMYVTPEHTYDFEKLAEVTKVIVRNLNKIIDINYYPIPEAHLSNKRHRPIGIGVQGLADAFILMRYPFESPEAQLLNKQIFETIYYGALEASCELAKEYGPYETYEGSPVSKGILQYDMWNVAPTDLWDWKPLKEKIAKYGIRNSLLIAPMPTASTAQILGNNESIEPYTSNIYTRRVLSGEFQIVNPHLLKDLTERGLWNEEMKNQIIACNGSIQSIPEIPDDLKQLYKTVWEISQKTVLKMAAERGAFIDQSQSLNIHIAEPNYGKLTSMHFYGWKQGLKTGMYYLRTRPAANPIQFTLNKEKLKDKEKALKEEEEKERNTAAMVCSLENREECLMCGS
# Assay: BIAcore biosensor analysis, immobilized Sml1p and mouse R1 protein
# Format: binding
# Conditions: not quantified
# Experimental: FIG. 14 Sensorgram showing the interaction between immobilized Sml1p and the mouse R1 protein. […] Curve 3 showes the response with mouse R1 protein alone at 0.1 mg/ml passed over immobilized Sml1p. Note that the injection time for this curve is prolonged from 6 min to 14 min.
# BIAcore biosensor analysis. The interaction between Sml1p and either yeast Rnr1p or mouse R1 protein was studied by biosensor analysis using the BIAcore method (Biacore AB). The Sml1 protein was prepared in 10 mM sodium acetate, pH 5.2, at a concentration of 0.44 mg/ml; it was then immobilized on the dextran layer of the sensor chip as described previously for the mouse R2 protein (17). The ligand proteins were equilibrated with running buffer (10 mM Hepes-KOH, pH 7.4, 200 mM potassium acetate, 1 mM EDTA, 5 mM magnesium acetate and 0.05% Surfactant P20 (BIAcore). The interactions were studied at a constant temperature of 22° C. and a constant flow of 5 μl/min. Kinetics for the interaction of Sml1p with yeast Rnr1p was determined by allowing the immobilized Sml1p to interact with increasing concentrations of Rnr1p (18). The resonance unit (RU) is proportional to the mass, and 1 RU corresponds to a surface concentration of 1 pg of protein/mm^2 of the 100 nm thick dextran layer (19).
# Kinetic studies of the interaction between the mouse RNR R1 protein and the Sml1 protein using a biosensor technique. […]
molecule,measurement,value
B1,binding to mouse R1 protein,high affinity
